Data as given in US20260167699A1 (Chugai, published 2026).
Numbering of substitutions follows the chain as printed.

T1: FcγRIIa(R) extracellular domain, His-tagged (human, UniProt P12318 34-217)
T1 construct: extracellular domain; also called 2aR
T1 sequence: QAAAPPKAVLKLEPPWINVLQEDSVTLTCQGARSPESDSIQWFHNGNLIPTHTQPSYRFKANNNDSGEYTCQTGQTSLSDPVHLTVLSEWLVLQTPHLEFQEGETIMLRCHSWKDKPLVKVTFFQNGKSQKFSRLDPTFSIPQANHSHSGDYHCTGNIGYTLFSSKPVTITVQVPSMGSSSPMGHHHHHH

T2: FcγRIIb extracellular domain, His-tagged (human, UniProt P31994 43-217)
T2 construct: extracellular domain; also called 2b
T2 sequence: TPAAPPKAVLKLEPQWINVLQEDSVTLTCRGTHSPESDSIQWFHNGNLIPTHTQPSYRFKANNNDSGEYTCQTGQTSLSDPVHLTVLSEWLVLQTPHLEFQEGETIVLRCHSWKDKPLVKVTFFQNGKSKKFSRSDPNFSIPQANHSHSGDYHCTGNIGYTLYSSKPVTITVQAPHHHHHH

T3: FcγRIIa(H) extracellular domain, His-tagged (human, UniProt P12318 34-217)
T3 construct: extracellular domain; also called 2aH
T3 sequence: T1 sequence with R134H

B1: GpH7-A5/GpH7-B3 variant D270_10E/GpL16-k0 (antibody, human IgG1, kappa)
heavy 1: not shown
heavy 2: not shown
light: DIVMTQSPLSLPVTPGEPASISCQASESLVHSNRNTYLHWYLQKPGQSPQLLIYKVSNRFSGVPDRFSGSGSGTDFTLKISRVEAEDVGVYYCSQNTHVPPTFGQGTKVEIERTVAAPSVFIFPPSDEQLKSGTASVVCLLNNFYPREAKVQWKVDNALQSGNSQESVTEQDSKDSTYSLSSTLTLSKADYEKHKVYACEVTHQGLSSPVTKSFNRGEC
B2: GpH7-A5/GpH7-B3 variant G236_09D/GpL16-k0 (antibody, human IgG1, kappa)
heavy 1: not shown
heavy 2: not shown
light: B1 light
B3: GpH7-A5/GpH7-B3 variant H268_02A/GpL16-k0 (antibody, human IgG1, kappa)
heavy 1: not shown
heavy 2: not shown
light: B1 light
B4: GpH7-A5/GpH7-B3 variant E269_02A/GpL16-k0 (antibody, human IgG1, kappa)
heavy 1: not shown
heavy 2: not shown
light: B1 light
B5: GpH7-A5/GpH7-B3 variant L234_02A/GpL16-k0 (antibody, human IgG1, kappa)
heavy 1: not shown
heavy 2: not shown
light: B1 light
B6: GpH7-A5/GpH7-B3 variant H268_12R/GpL16-k0 (antibody, human IgG1, kappa)
heavy 1: not shown
heavy 2: not shown
light: B1 light
B7: GpH7-A5/GpH7-B3 variant H268_18N/GpL16-k0 (antibody, human IgG1, kappa)
heavy 1: not shown
heavy 2: not shown
light: B1 light
B8: GpH7-A5/GpH7-B3 variant E269_13S/GpL16-k0 (antibody, human IgG1, kappa)
heavy 1: not shown
heavy 2: not shown
light: B1 light
B9: GpH7-A5/GpH7-B3 variant H268_20W/GpL16-k0 (antibody, human IgG1, kappa)
heavy 1: not shown
heavy 2: not shown
light: B1 light
B10: GpH7-A5/GpH7-B3 variant H268_07I/GpL16-k0 (antibody, human IgG1, kappa)
heavy 1: not shown
heavy 2: not shown
light: B1 light
B11: GpH7-A5/GpH7-B3 variant G236_13S/GpL16-k0 (antibody, human IgG1, kappa)
heavy 1: not shown
heavy 2: not shown
light: B1 light
B12: GpH7-A5/GpH7-B3 variant H268_06M/GpL16-k0 (antibody, human IgG1, kappa)
heavy 1: not shown
heavy 2: not shown
light: B1 light
B13: GpH7-A5/GpH7-B3 variant H268_05P/GpL16-k0 (antibody, human IgG1, kappa)
heavy 1: not shown
heavy 2: not shown
light: B1 light
B14: GpH7-A5/GpH7-B3 variant G236_10E/GpL16-k0 (antibody, human IgG1, kappa)
heavy 1: not shown
heavy 2: not shown
light: B1 light
B15: GpH7-A5/GpH7-B3 variant D270_14T/GpL16-k0 (antibody, human IgG1, kappa)
heavy 1: not shown
heavy 2: not shown
light: B1 light

target: T1, FcγRIIa(R) extracellular domain, …; assay: SPR, vs GpH7-A5/GpH7-B3/GpL16-k0 =100

He/Con 2aR | Binder
85.7 % of control | B1
105 % of control | B2
143 % of control | B3
70.2 % of control | B4
92.5 % of control | B5
113 % of control | B6
138 % of control | B7
65.8 % of control | B8
122 % of control | B9
102 % of control | B10
135 % of control | B11
87.2 % of control | B12
114 % of control | B13
124 % of control | B14
72.2 % of control | B15

target: T4, FcγRIIIa extracellular domain, His-tagged (human, UniProt P08637 17-208); assay: SPR, vs GpH7-A5/GpH7-B3/GpL16-k0 =100
T4 construct: extracellular domain; also called 3a
T4 sequence (P08637 other isoform, or with tags, fused parts or gaps): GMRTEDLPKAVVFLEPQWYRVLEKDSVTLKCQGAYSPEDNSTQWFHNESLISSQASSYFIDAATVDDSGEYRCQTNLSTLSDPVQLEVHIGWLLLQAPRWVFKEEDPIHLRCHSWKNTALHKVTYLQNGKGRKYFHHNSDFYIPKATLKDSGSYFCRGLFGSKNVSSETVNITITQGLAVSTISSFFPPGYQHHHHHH

He/Con 3a | Binder
112 % of control | B1
66.2 % of control | B2
121 % of control | B3
68 % of control | B4
69.7 % of control | B5
76 % of control | B6
103 % of control | B7
62.1 % of control | B8
82 % of control | B9
84.1 % of control | B10
60.3 % of control | B11
79.5 % of control | B12
75.6 % of control | B13
65.8 % of control | B14
55.4 % of control | B15

target: T5, FcγRIa extracellular domain, His-tagged (human, UniProt P12314 16-292); assay: SPR, vs GpH7-A5/GpH7-B3/GpL16-k0 =100
T5 construct: extracellular domain; also called 1a
T5 sequence (P12314 other isoform, or with tags, fused parts or gaps): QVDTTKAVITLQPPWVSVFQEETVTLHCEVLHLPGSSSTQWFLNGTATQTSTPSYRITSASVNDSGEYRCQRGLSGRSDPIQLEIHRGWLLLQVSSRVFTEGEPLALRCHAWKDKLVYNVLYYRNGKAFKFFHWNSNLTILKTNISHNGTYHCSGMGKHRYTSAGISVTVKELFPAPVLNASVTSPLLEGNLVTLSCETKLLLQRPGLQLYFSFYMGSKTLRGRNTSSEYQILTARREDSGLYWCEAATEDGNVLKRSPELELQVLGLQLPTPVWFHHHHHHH

He/Con 1a | Binder
104 % of control | B1
95.5 % of control | B2
105 % of control | B3
101 % of control | B4
101 % of control | B5
103 % of control | B6
104 % of control | B7
99.8 % of control | B8
103 % of control | B9
104 % of control | B10
96 % of control | B11
101 % of control | B12
106 % of control | B13
92.6 % of control | B14
89.5 % of control | B15

target: T2, FcγRIIb extracellular domain, His-tagged; assay: SPR, vs GpH7-A5/GpH7-B3/GpL16-k0 =100

He/Con 2b | Binder
72.5 % of control | B1
174 % of control | B2
175 % of control | B3
52.4 % of control | B4
74.1 % of control | B5
94.3 % of control | B6
164 % of control | B7
50.2 % of control | B8
117 % of control | B9
93.4 % of control | B10
101 % of control | B11
69 % of control | B12
122 % of control | B13
115 % of control | B14
54.8 % of control | B15

target: T3, FcγRIIa(H) extracellular domain, …; assay: SPR, vs GpH7-A5/GpH7-B3/GpL16-k0 =100

He/Con 2aH | Binder
111 % of control | B1
93.5 % of control | B2
115 % of control | B3
78.7 % of control | B4
90.1 % of control | B5
90.9 % of control | B6
113 % of control | B7
70.7 % of control | B8
96.9 % of control | B9
91.2 % of control | B10
140 % of control | B11
85.8 % of control | B12
82.7 % of control | B13
116 % of control | B14
81.3 % of control | B15
